B1: STK38L (parent)
chain: FLPGGDMMTLLMKKDTLTEEETQF
B2: KLHDC10 (parent)
chain: FGGTGIPFGESNGNGVHVCNVKYK

Variants of: B1
Assay: protein stability index of a GFP-peptide fusion (GPS, HEK-293T) (PSI 1-6); higher = more stable
Settings: c terminus: a fixed tail appended
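Further: lentivirally expressed fusions sorted by FACS into six bins by GFP to DsRed ratio, PSI derived from sequencing read proportions per bin multiplied by bin number.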

Q: Which protein stability index does the source give for T9A here?
A: 2.52

Q: With T9L as the variant, how does the protein stability index read?
A: 2.32

Q: Which protein stability index does the source give for M8Q here?
A: 3.35

Q: Which protein stability index does the source give for E19A here?
A: 2.13

Q: Which protein stability index does the source give for D15M here?
A: 2.53

Q: Which protein stability index does the source give for L11R here?
A: 3.29

Q: For Q23M, which protein stability index is on record?
A: 2.4

Q: For T22G, which protein stability index is on record?
A: 2.08

Q: Which protein stability index does the source give for M7L here?
A: 2.43

Q: For E19N, which protein stability index is on record?
A: 1.72

Q: For L11Q, which protein stability index is on record?
A: 3.89

Q: For T22W, which protein stability index is on record?
A: 2.4

Q: For T22I, which protein stability index is on record?
A: 2.35

Q: Which protein stability index does the source give for L11F here?
A: 1.84

Q: Which protein stability index does the source give for D15R here?
A: 1.84

Q: With E20D as the variant, how does the protein stability index read?
A: 2.45

Q: With E19F as the variant, how does the protein stability index read?
A: 1.87

Q: With F1Q as the variant, how does the protein stability index read?
A: 4.79

Q: With E20L as the variant, how does the protein stability index read?
A: 1.13

Q: With G4Y as the variant, how does the protein stability index read?
A: 2.29

Q: Which protein stability index does the source give for K13A here?
A: 2.21

Q: With L17W as the variant, how does the protein stability index read?
A: 1.75

Q: With L17E as the variant, how does the protein stability index read?
A: 3.35

Q: For F1V, which protein stability index is on record?
A: 4.67

Q: For L10A, which protein stability index is on record?
A: 3.73

Q: For F24S, which protein stability index is on record?
A: 2.19

Q: Which protein stability index does the source give for L11T here?
A: 3.07

Q: Which protein stability index does the source give for G4S here?
A: 2.61

Q: With M8W as the variant, how does the protein stability index read?
A: 1.44

Q: Which protein stability index does the source give for L2E here?
A: 4.84

Q: With T9W as the variant, how does the protein stability index read?
A: 2.2

Q: With L10C as the variant, how does the protein stability index read?
A: 3.45

Q: With M8R as the variant, how does the protein stability index read?
A: 3.36

Q: For L11S, which protein stability index is on record?
A: 3.41

Q: Which protein stability index does the source give for Q23A here?
A: 2.05

Q: With M12K as the variant, how does the protein stability index read?
A: 3.69

Q: For Q23E, which protein stability index is on record?
A: 2.25

Q: For G4C, which protein stability index is on record?
A: 3.09

Q: With E21F as the variant, how does the protein stability index read?
A: 1.2

Q: For T9Q, which protein stability index is on record?
A: 2.69

Q: For T18P, which protein stability index is on record?
A: 2.68

Q: Which protein stability index does the source give for E21M here?
A: 1.98

Q: Which protein stability index does the source give for L17Q here?
A: 1.98

Q: Which protein stability index does the source give for K13P here?
A: 2.24

Q: With F24D as the variant, how does the protein stability index read?
A: 2.97

Q: For G4P, which protein stability index is on record?
A: 3.95

Q: For G5N, which protein stability index is on record?
A: 3.13

Q: Which protein stability index does the source give for M7C here?
A: 2.63

Q: With F24E as the variant, how does the protein stability index read?
A: 2.35

Q: For Q23R, which protein stability index is on record?
A: 3.09

Q: Which protein stability index does the source give for G4V here?
A: 3.39

Q: Which protein stability index does the source give for F24W here?
A: 2.09

Q: With Q23H as the variant, how does the protein stability index read?
A: 2.27

Q: For P3F, which protein stability index is on record?
A: 2.22

Q: With L10I as the variant, how does the protein stability index read?
A: 2.64

Q: With P3A as the variant, how does the protein stability index read?
A: 1.66

Q: For T22F, which protein stability index is on record?
A: 2.25

Q: With K14L as the variant, how does the protein stability index read?
A: 1.89

Q: Which protein stability index does the source give for L11N here?
A: 3.4

Q: With E21I as the variant, how does the protein stability index read?
A: 2

Q: With T18R as the variant, how does the protein stability index read?
A: 1.84

Q: Which protein stability index does the source give for K13H here?
A: 2.37

Q: For T9C, which protein stability index is on record?
A: 2.01

Q: Which protein stability index does the source give for M12D here?
A: 4.06

Q: For D6F, which protein stability index is on record?
A: 1.96

Q: Which protein stability index does the source give for G5F here?
A: 2.84

Q: With T9K as the variant, how does the protein stability index read?
A: 2.12

Q: Which protein stability index does the source give for L10M here?
A: 3.16

Q: Which protein stability index does the source give for L17V here?
A: 1.94

Q: Which protein stability index does the source give for P3I here?
A: 2.31

Q: Which protein stability index does the source give for T22N here?
A: 2.31

Q: For T18W, which protein stability index is on record?
A: 2.17

Q: Which protein stability index does the source give for M7R here?
A: 3.61

Q: Which protein stability index does the source give for M7S here?
A: 3.9

Q: Which protein stability index does the source give for M12E here?
A: 3.68

Q: With E20H as the variant, how does the protein stability index read?
A: 1.97

Q: For K14G, which protein stability index is on record?
A: 2.25

Q: Which protein stability index does the source give for F24G here?
A: 2.84

Q: Which protein stability index does the source give for K13M here?
A: 2.28

Q: With T18H as the variant, how does the protein stability index read?
A: 2.05

Q: Which protein stability index does the source give for T16I here?
A: 2.36

Q: Which protein stability index does the source give for T9H here?
A: 2.45

Q: For E20I, which protein stability index is on record?
A: 1.4

Q: For M7D, which protein stability index is on record?
A: 4.85

Q: For L11C, which protein stability index is on record?
A: 2.63

Q: With D6L as the variant, how does the protein stability index read?
A: 2.71

Q: For L10W, which protein stability index is on record?
A: 1.98

Variants of: B2
Assay: as above
Settings: c terminus: a fixed tail appended

Q: Which protein stability index does the source give for F1A here?
A: 4.18

Q: With F1C as the variant, how does the protein stability index read?
A: 3.03

Q: Which protein stability index does the source give for F1D here?
A: 4.58

Q: For F1E, which protein stability index is on record?
A: 3.67

Q: Which protein stability index does the source give for F1G here?
A: 4.3

Q: With F1H as the variant, how does the protein stability index read?
A: 3.93

Q: With F1I as the variant, how does the protein stability index read?
A: 3.5

Q: For F1K, which protein stability index is on record?
A: 3.71

Q: For F1L, which protein stability index is on record?
A: 4.04

Q: With F1M as the variant, how does the protein stability index read?
A: 4.04

Q: For F1N, which protein stability index is on record?
A: 4.34

Q: Which protein stability index does the source give for F1P here?
A: 3.9

Q: With F1Q as the variant, how does the protein stability index read?
A: 4.24

Q: With F1R as the variant, how does the protein stability index read?
A: 3.54

Q: With F1S as the variant, how does the protein stability index read?
A: 4.25

Q: Which protein stability index does the source give for F1T here?
A: 3.98

Q: Which protein stability index does the source give for F1V here?
A: 3.79

Q: Which protein stability index does the source give for F1W here?
A: 2.73

Q: Which protein stability index does the source give for F1Y here?
A: 2.23

Q: With G2A as the variant, how does the protein stability index read?
A: 2.2

Q: For G2C, which protein stability index is on record?
A: 2.41

Q: With G2D as the variant, how does the protein stability index read?
A: 3.46

Q: With G2E as the variant, how does the protein stability index read?
A: 3.9

Q: Which protein stability index does the source give for G2F here?
A: 2.72

Q: With G2H as the variant, how does the protein stability index read?
A: 2.58

Q: Which protein stability index does the source give for G2I here?
A: 2.14

Q: With G2K as the variant, how does the protein stability index read?
A: 3.55

Q: Which protein stability index does the source give for G2L here?
A: 2.19

Q: Which protein stability index does the source give for G2M here?
A: 2.7

Q: For G2N, which protein stability index is on record?
A: 2.16

Q: With G2P as the variant, how does the protein stability index read?
A: 1.83

Q: Which protein stability index does the source give for G2Q here?
A: 2.02

Q: For G2R, which protein stability index is on record?
A: 3.08

Q: With G2S as the variant, how does the protein stability index read?
A: 2.11

Q: For G2T, which protein stability index is on record?
A: 1.97

Q: With G2V as the variant, how does the protein stability index read?
A: 1.92

Q: With G2W as the variant, how does the protein stability index read?
A: 2.2

Q: With G2Y as the variant, how does the protein stability index read?
A: 2.55

Q: Which protein stability index does the source give for G3A here?
A: 2.52

Q: For G3C, which protein stability index is on record?
A: 3.1

Q: With G3D as the variant, how does the protein stability index read?
A: 2.38

Q: With G3E as the variant, how does the protein stability index read?
A: 3.3

Q: For G3F, which protein stability index is on record?
A: 2.66

Q: With G3H as the variant, how does the protein stability index read?
A: 2.54

Q: For G3I, which protein stability index is on record?
A: 2.13

Q: For G3K, which protein stability index is on record?
A: 2.32

Q: With G3L as the variant, how does the protein stability index read?
A: 2.63

Q: Which protein stability index does the source give for G3M here?
A: 2.29

Q: Which protein stability index does the source give for G3N here?
A: 2.35

Q: With G3P as the variant, how does the protein stability index read?
A: 2.78

Q: Which protein stability index does the source give for G3Q here?
A: 2.88

Q: With G3R as the variant, how does the protein stability index read?
A: 2.77

Q: For G3S, which protein stability index is on record?
A: 2.61

Q: Which protein stability index does the source give for G3T here?
A: 2.81

Q: With G3V as the variant, how does the protein stability index read?
A: 2.98

Q: Which protein stability index does the source give for G3W here?
A: 1.42

Q: Which protein stability index does the source give for G3Y here?
A: 1.95

Q: With T4A as the variant, how does the protein stability index read?
A: 2.02

Q: Which protein stability index does the source give for T4C here?
A: 1.94

Q: With T4D as the variant, how does the protein stability index read?
A: 2.52

Q: Which protein stability index does the source give for T4E here?
A: 2.68

Q: Which protein stability index does the source give for T4F here?
A: 2.08

Q: Which protein stability index does the source give for T4G here?
A: 2.03

Q: Which protein stability index does the source give for T4H here?
A: 1.9

Q: For T4I, which protein stability index is on record?
A: 3.13

Q: With T4K as the variant, how does the protein stability index read?
A: 1.72

Q: With T4L as the variant, how does the protein stability index read?
A: 1.82

Q: Which protein stability index does the source give for T4M here?
A: 1.65

Q: For T4N, which protein stability index is on record?
A: 1.98

Q: For T4P, which protein stability index is on record?
A: 2.91

Q: For T4Q, which protein stability index is on record?
A: 1.6

Q: Which protein stability index does the source give for T4R here?
A: 1.93

Q: Which protein stability index does the source give for T4S here?
A: 1.82

Q: With T4V as the variant, how does the protein stability index read?
A: 2.5

Q: For T4W, which protein stability index is on record?
A: 2.52

Q: With T4Y as the variant, how does the protein stability index read?
A: 1.68

Q: Which protein stability index does the source give for G5A here?
A: 2.07

Q: Which protein stability index does the source give for G5C here?
A: 1.71

Q: With G5D as the variant, how does the protein stability index read?
A: 2.95

Q: For G5E, which protein stability index is on record?
A: 3.42
